{
  "source": "patent US20120214741",
  "target": "VDAC of isolated rat mitochondria (liver, brain) (UniProt Q9Z2L0)",
  "sequence (Q9Z2L0 2-283)": "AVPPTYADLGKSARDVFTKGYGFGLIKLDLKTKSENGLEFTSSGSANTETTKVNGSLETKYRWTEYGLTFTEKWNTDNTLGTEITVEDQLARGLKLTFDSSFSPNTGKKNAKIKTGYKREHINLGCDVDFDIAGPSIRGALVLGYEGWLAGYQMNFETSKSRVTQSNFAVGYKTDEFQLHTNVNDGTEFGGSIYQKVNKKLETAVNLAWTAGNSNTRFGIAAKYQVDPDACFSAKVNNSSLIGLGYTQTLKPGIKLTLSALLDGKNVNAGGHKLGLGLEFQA",
  "data": [
    {"substance": "yeast HK", "values": [
      {"measurement": "PTP opening (swelling of energized mitochondria)", "value": "The failure of non-binding species of HK, such as yeast HK, or trypsin- or chymotrypsin-treated HK-I (FIG. 2D) to prevent PTP opening"}
    ]}
  ]
}
